From patent US20130195872A1 (NOVIMMUNE S A, published 2013)
Where a chain is given by its changes, count along the chain named.

What was measured:
Experiment in all cases: cell-based or functional assay
[1] = biological target: T1, human IL-17A homodimer (human, UniProt Q16552 20-155, limits assumed)
T1 sequence (looked up): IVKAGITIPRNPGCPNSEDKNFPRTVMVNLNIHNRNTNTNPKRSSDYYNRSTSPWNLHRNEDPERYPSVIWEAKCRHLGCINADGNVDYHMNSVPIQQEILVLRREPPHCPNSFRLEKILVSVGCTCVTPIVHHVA

[2] = biological target: T2, cynomolgus IL-17A homodimer (cynomolgus, UniProt A0A2K5TTB0 20-155)
T2 sequence: T1 sequence (looked up) with T7A, P12S, N38S, I81V, N82K, P108R

[3] = biological target: T3, human IL-17A/IL-17F heterodimer (human, UniProt Q16552 24-155; Q96PD4 31-163, limits assumed)
T3 sequence (looked up) 1: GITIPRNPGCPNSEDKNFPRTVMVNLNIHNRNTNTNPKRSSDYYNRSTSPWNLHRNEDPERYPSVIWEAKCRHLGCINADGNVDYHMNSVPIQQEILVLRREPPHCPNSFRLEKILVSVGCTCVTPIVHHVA
T3 sequence (looked up) 2: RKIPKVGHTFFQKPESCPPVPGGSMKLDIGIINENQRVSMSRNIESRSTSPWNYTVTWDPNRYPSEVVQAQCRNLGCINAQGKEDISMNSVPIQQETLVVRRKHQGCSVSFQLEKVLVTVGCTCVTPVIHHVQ

[4] = biological target: cynomolgus IL-17A/IL-17F heterodimer (cynomolgus)
[5] = biological target: T1, human IL-17A homodimer; remark: listed apart in the source
[6] = biological target: T4, cynomolgus IL-17F homodimer (cynomolgus, UniProt G7P4V0 31-163)
T4 sequence: T3 sequence (looked up) 2 with G22E, I29T, R73K, N74H, V100L, I129V

B1: 29D8 antibody (antibody, IgG1, V domains shown)
VH: QVQLVQSGAEVKKPGASVKVSCKAFAYTFSTYGISWVRQAPGQGLEWMGWISAYNSNTNYAQKVQGRITMTTDTSTRTAYMELRGLRSDDTAVYFCATFFGGHSGYHYGLDVWGQGTTVTVSS
VL: EIVLTQSPATLSLSPGERATLSCRASQSVSSYLAWYQQKPGQAPRLLIYDASNRATGIPARFSGSGSGTDFTLTISSLEPEDFAVYYCQQRSNWPPYTFGQGTKLEIK
[1]
  IC50, IL-6 secretion by HFFF2 human fibroblasts, cytokine at 25 ng/ml: 36 nM
[2]
  IC50, IL-6 secretion by MEF cells, cytokine at 5 ng/ml: 8.4 nM
[3]
  IC50, IL-6 secretion by MEF cells, cytokine at 17.5 ng/ml: 1.1 nM
[4]
  IC50, IL-6 secretion by MEF cells, cytokine at 25 ng/ml: 0.56 nM
[5]
  IC50, IL-6 secretion by MEF cells, cytokine at 5 ng/ml: 40 nM
[6]
  IC50, IL-6 secretion by MEF cells, cytokine at 25 ng/ml: 3.6 nM

B2: 1E4 antibody (antibody, IgG4, V domains shown)
VH: QVQLVQSGAEVKKPGASVKVSCKASVYTFTTYGISWVRQAPGQGLEWMGWISVYNGNTNYGQNFQGRVSMTTDTSTSTAYMELRSLRSDDTAVYYCASFHGGHSGYHYGLDVWGQGTTVTVSS
VL: B1 VL
[2]
  IC50, IL-6 secretion by MEF cells, cytokine at 5 ng/ml: 330 nM
[3]
  IC50, IL-6 secretion by MEF cells, cytokine at 17.5 ng/ml: 16 nM
[5]
  IC50, IL-6 secretion by MEF cells, cytokine at 5 ng/ml: 480 nM
[6]
  IC50, IL-6 secretion by MEF cells, cytokine at 25 ng/ml: 3.4 nM

B3: 31A3 antibody (antibody, IgG1, V domains shown)
VH: B2 VH with S52T, G61A, N63K, Q65H, S69T
VL: B1 VL
[2]
  IC50, IL-6 secretion by MEF cells, cytokine at 5 ng/ml: 290 nM
[3]
  IC50, IL-6 secretion by MEF cells, cytokine at 17.5 ng/ml: 9.2 nM
[6]
  IC50, IL-6 secretion by MEF cells, cytokine at 25 ng/ml: 4.2 nM

B4: 8B11 antibody (antibody, IgG3, V domains shown)
VH: EVQLVESGGGLVHPGGSLRLSCAASGFTFSSFNMDWVRQAPGKGLEWVSSISTTSRIIYSADSVKGRFTISRDNARNSLYLQMNSLRDEDTAVYYCARVSYYGHGFDYWGQGTLVTVSS
VL: DIQMTQSPSSLSASVGDRVTITCRASQGISSWLAWYQQKPEKAPKSLIYAASSLQSGVPSRFSGSGSGTDFTLTISSLQPEDFATYYCQQYNSYPLTFGGGTKVEIK
[2]
  IC50, IL-6 secretion by MEF cells, cytokine at 5 ng/ml: 230 nM
[3]
  IC50, IL-6 secretion by MEF cells, cytokine at 17.5 ng/ml: 240 nM
[5]
  IC50, IL-6 secretion by MEF cells, cytokine at 5 ng/ml: 100 nM
[6]
  IC50, IL-6 secretion by MEF cells, cytokine at 25 ng/ml: 50 nM
